Read-outs that look alike come from different tables or passages of the source. Where no end group is shown, it is not given here.
Experiments:
[1] = target: 3TD of SETDB1, Y268A mutant, as used in ITC (UniProt Q15047 190-410, Y268A); experiment: ITC
[2] = target: 3TD of SETDB1, R384A mutant, as used in ITC (UniProt Q15047 190-410, alanine mutation of R384); experiment: ITC
[3] = target: T1, triple Tudor domain (3TD) of SETDB1, wildtype, as used in solution (ITC, NMR, crystals) (UniProt Q15047 190-410); experiment: ITC
[4] = target: 3TD of SETDB1, W358A mutant, as used in ITC and crystals (UniProt Q15047 190-410, W358A); experiment: ITC
[5] = target: T2, 3TD of SETDB1, F332A mutant, as used in ITC (UniProt Q15047 190-410, F332A); experiment: ITC
[6] = target: T2, 3TD of SETDB1, F332A mutant, as used in …; experiment: ITC; remark: listed apart in the source
[7] = target: T1, triple Tudor domain (3TD) of SETDB1, …; experiment: NMR
[8] = target: T1, triple Tudor domain (3TD) of SETDB1, …; experiment: ITC; remark: listed apart in the source

Binder	Kd [1] [µM]	Kd [2] [µM]	Kd [3] [µM]	Kd [4] [µM]	Kd [5] [µM]	Kd [6] [µM]	Kd [7] [µM]	Kd [8] [µM]
KQTARK(Me)STGGK(Ac)APRKQ [H3K9me1/K14ac peptide in solution (ITC)]	19.2	5.1	29.4	–	–	–	–	–
KQTARK(Me3)STGGK(Ac)APRKQ [H3K9me3/K14ac peptide in solution (ITC; crystals)]	135	9.2	23.9	55.6	–	–	–	–
KQTARK(Me2)STGGK(Ac)APRKQ [H3K9me2/K14ac peptide in solution (ITC; crystal with W358A), limits not stated]	8.1	2.6	9.3	174	~350	353	–	–
KQTARKSTGGK(Ac)APRKQ [monomodified H3K14ac peptide in solution (ITC, NMR; crystal)]	–	–	–	–	–	–	930	> 500

Reference: PMC5727127 (2017)
